Marks after values point to notes of the source that are not given here.
Legend:
[1] = system: lung cancer cells H460; assay: Killing of tumor cells by stimulated T cells, CytoTox 96 non-radioactive cytotoxicity assay; details: T cells stimulated with 40 μg/mL for 4 days, effector-target ratio 20:1
Experimental: CytoTox 96 non-radioactive cytotoxicity assay was used to detect the killing effect of L1, L2, D1 and D2 polypeptides (40 μg/mL) on lung cancer cells H460 after stimulating human T lymphocytes for 4 days, respectively.

[2] = system: colon cancer cell line SW480; assay: as above; type: cell-based, human; details: effector-target ratio 30:1
Experimental: (§1) Three protein concentrations (20 μg/mL, 40 μg/mL, 80 μg/mL) of TAT-SHP2-N-SH2 fusion protein were selected to stimulate human T lymphocytes and the killing effect on tumor cells MDA-MB-231 and SW480, respectively at an effector-target ratio of 30:1 was detected by CytoTox 96 non-radioactive cytotoxicity assay.

[3] = system: breast cancer cell line MDA-MB-231; assay: as above; type: cell-based, human; details: effector-target ratio 30:1
Experimental: as §1

[4] = system: T lymphocytes; assay: T lymphocyte apoptosis, Annexin V-FITC/PI flow cytometry; type: cell-based; details: 80 μg/mL, 3 days, PD-L1 coated plate, compared with control group
Experimental: The resuspended cells are added to different groups to treat untreated groups SHP2-NC, SHP2-N-SH2 (80 μg/mL), TAT-SHP2-C-SH2 polypeptide (80 μg/mL), and then continues to culture on EASY-T stimulated plates for 3 d (50 ng of PD-L1 antibody is added 3 hours before adding the cell mixture to coat a 24-well plate at 37° C.), and the cells are collected, detection by flow cytometry after FITC and PI staining; e According to the results of flow cytometry, the proportion of apoptotic cells is counted, compared with the control group, *p<0.05 or **p<0.01.
T lymphocytes were stimulated with recombinant TAT-N-SH2 fusion protein and L1 polypeptide for 3 days and the apoptosis of T lymphocytes in different treatment groups was detected by flow cytometry. […] FIG. 13e, according to the results of flow cytometry, the proportion of apoptotic cells was counted, compared with the control group, *p<0.05 or **p<0.01.

[5] = system: MDA-MB-231; assay: Direct killing of tumor cells, zenCell owl live cell imaging; type: cell-based; details: 20, 40, 80 μg/mL, no T cells
Experimental: (§2) In order to detect whether the recombinant TAT-N-SH2 fusion protein and L1 polypeptide have direct killing effect on tumor cells, we co-cultured different concentrations (20 μg/mL, 40 μg/mL, 80 μg/mL) of recombinant TAT-N-SH2 fusion protein and L1 polypeptide with tumor cells MDA-MB-231 and SW480, and applied zenCell owl live cell dynamic imaging analysis system to observe its effect on tumor cells in real time.

[6] = system: SW480; assay: as above; type: cell-based; details: 20, 40, 80 μg/mL, no T cells
Experimental: as §2

[7] = system: PD-L1-KO-EMT6; assay: PD-L1 knockout EMT-6 breast cancer xenografts in BALB/c mice; type: in vivo
Text: Tumor weight of mice after 23 d dissection; b. Tumor size; c. Tumor growth curve; Unpaired t-test, compared with control group, *P<0.05, **P<0.01, ***P<0.001.
Recombinant TAT-N-SH2 fusion protein and L1 (TAT-SHP2-C-SH2) polypeptide target the ITIM motif of inhibitory receptors. […] To this end, we constructed a breast cancer EMT-6 cell line stably knocked out PD-L1 (PD-L1-KO-EMT6), inoculated into the mouse mammary fat pad, and the recombinant TAT-N-SH2 fusion protein (N5) and TAT-SHP2-C-SH2 polypeptide (C5) were administered by intraperitoneal injection at 5 μg/mouse, respectively and at the same time, a dose of 50 μg/mouse αPD-1 antibody (αPD-1) was used as the control drug.

[8] = system: T lymphocytes; assay: T lymphocyte proliferation detected by CFSE; type: cell-based; details: 80 μg/mL, 3 days, control group 62.83%
Experimental: Compared with the control group, p>0.05 has no statistical significance.
To test whether recombinant TAT-N-SH2 fusion protein and L1 (TAT-SHP2-C-SH2) polypeptide can enhance the proliferation of T lymphocytes, we used 80 μg/mL TAT-SHP2-N-SH2 fusion protein and TAT-SHP2-C-SH2 polypeptide to stimulate T lymphocytes for 3 days, respectively, the proliferation of T lymphocytes was detected by CFSE.

[9] = system: EMT breast cancer; assay: EMT breast cancer mouse subcutaneous tumor-bearing model; type: in vivo, mice
Experimental: Tumor weight of mice in different administration groups after 21 d dissection; b. Tumor size; Unpaired t-test, compared with control group, *p<0.05, **p<0.01, ***p<0.001.
We further evaluated the effects of TAT-SHP2SHP2-N-SH2 fusion protein and TAT-SHP2SHP2-C-SH2 polypeptide on tumor growth in mice by establishing a subcutaneous tumor-bearing model of EMT breast cancer mice. We used TAT-SHP2SHP2-C-SH2 polypeptide at 5 μg/mouse (C5), 10 μg/mouse (C10), 15 μg/mouse (C15) and 2 μg/mouse (N2), 5 μg/mouse (N5), 10 μg/mouse (N10), 15 μg/mouse (N15) of TAT-SHP2SHP2-N-SH2 fusion protein were administered by intraperitoneal injection and at the same time, the dose of 50 μg/mouse αPD-1 antibody (αPD-1) was used as the positive control drug.

[10] = system: EMT-6 breast cancer; assay: EMT-6 breast cancer in immune-deficient nude mice; type: in vivo; details: groups C5/N5, once every other day, 8 doses
Text: Tumor weight of mice after 21 d dissection; b. Tumor size; c. Tumor growth curve; NS: no statistical difference.
At the same time, we selected immune-deficient nude mice to inoculate EMT-6 breast cancer tumors. After 5 days of tumor formation, they were randomly divided into three groups with 6 mice in each group. Start the administration, the administration dose is the same as above, administered once every other day for a total of 8 doses, 4 days to measure tumor size, the growth curve was drawn, and the mice were sacrificed to measure the body weight on day 21.

[11] = system: MC38 colon cancer; assay: MC38 colon cancer in immunodeficient nude mice; type: in vivo
Text: Tumor weight of mice after 30 d dissection; b. Tumor size; c. Tumor growth curve; Unpaired t-test, compared with control group, NS: no statistical difference.
In order to exclude the direct inhibitory effect of recombinant TAT-N-SH2 fusion protein and L1 (TAT-SHP2-C-SH2) polypeptide on tumors, we selected immunodeficient nude mice to inoculate MC38 colon cancer tumors, and started administration 14 days after tumor formation, 4 days to measure the tumor volume, after 30 days, the mice were sacrificed for dissection, and the tumor weight was measured.

[12] = system: IL-2; assay: Cytokine IL-2 secreted by T lymphocytes; type: cell-based; details: T lymphocytes stimulated 3 days, compared with control group
Text: The T lymphocytes stimulated by recombinant TAT-N-SH2 fusion protein and L1 polypeptide for 3 days were collected to detect the level of cytokine IL-2 secreted.

[13] = system: ERK, AKT and JNK; assay: Phosphorylation of ERK, AKT and JNK in T lymphocytes, Western-blot; type: cell-based; details: T lymphocytes stimulated 3 days, compared with untreated group
Experimental: TAT-SHP2-N-SH2 fusion protein treatment group; c. TAT-SHP2 C-SH2 polypeptide treatment group; b, d. According to Western-blot results, with β-actin as an internal reference, grayscale analysis of the phosphorylation expression of JNK, AKT and ERK proteins mediated by T lymphocytes is performed. Unpaired t-test, compared with negative control, **p<0.01, NS has no statistical difference.
The T lymphocytes stimulated by recombinant TAT-N-SH2 fusion protein and L1 (TAT-SHP2-C-SH2) polypeptide for 3 days were collected to detect the changes in the phosphorylation levels of ERK, AKT and JNK molecules.

[14] = system: MC38 colon cancer; assay: MC38 colon cancer mouse subcutaneous tumor-bearing model; type: in vivo, mice
Text: A subcutaneous tumor model of MC38 colon cancer mice was established.

[15] = T cells stimulated with 20 μg/ml
[16] = T cells stimulated with 40 μg/ml
[17] = T cells stimulated with 80 μg/ml
[18] = Table 4, 1.25 μg/mouse intraperitoneal, 8 administrations
[19] = Table 4, 2.5 μg/mouse intraperitoneal, 8 administrations
[20] = Table 4, 5 μg/mouse intraperitoneal, 8 administrations
[21] = Table 4, 10 μg/mouse intraperitoneal, 8 administrations
[22] = Table 5, 5 μg/mouse intraperitoneal

## CC(C)C[C@@H](NC(=O)[C@H](NC(=O)[C@@H](Cc1ccccc1)NC(=O)[C@@H](CC(=O)O)NC(=O)CNC(=O)[C@H]1CCCN1C(=O)[C@@H](Cc1c[nH]cn1)NC(=O)[C@@H](CO)NC(=O)[C@@H](CCC(N)=O)NC(=O)[C@@H](CO)NC(=O)[C@@H](CCC(=O)O)NC(=O)[C@@H](CCCNC(=N)N)NC(=O)[C@H](NC(=O)[C@H]1CCCN1C(=O)[C@H]1CCCN1C(=O)[C@@H](CCCNC(=N)N)NC(=O)[C@@H](CCCNC(=N)N)NC(=O)[C@@H](CCCNC(=N)N)NC(=O)[C@@H](CCC(N)=O)NC(=O)[C@@H](CCCNC(=N)N)NC(=O)[C@@H](CCCNC(=N)N)NC(=O)[C@@H](CCCCN)NC(=O)[C@@H](CCCCN)NC(=O)[C@@H](CCCNC(=N)N)NC(=O)CNC(=O)[C@H](N)Cc1ccc(O)cc1)C(C)C)C(C)C)C(=O)O [D1]
[1]
  Cytotoxicity (%): 39.43 ± 1.31 %

## CC(C)C[C@H](NC(=O)[C@@H](NC(=O)[C@H](Cc1ccccc1)NC(=O)[C@H](CC(=O)O)NC(=O)CNC(=O)[C@@H]1CCCN1C(=O)[C@H](Cc1c[nH]cn1)NC(=O)[C@H](CO)NC(=O)[C@H](CCC(N)=O)NC(=O)[C@H](CO)NC(=O)[C@H](CCC(=O)O)NC(=O)[C@H](CCCNC(=N)N)NC(=O)[C@@H](NC(=O)[C@@H]1CCCN1C(=O)[C@@H]1CCCN1C(=O)[C@H](CCCNC(=N)N)NC(=O)[C@H](CCCNC(=N)N)NC(=O)[C@H](CCCNC(=N)N)NC(=O)[C@H](CCC(N)=O)NC(=O)[C@H](CCCNC(=N)N)NC(=O)[C@H](CCCNC(=N)N)NC(=O)[C@H](CCCCN)NC(=O)[C@H](CCCCN)NC(=O)[C@H](CCCNC(=N)N)NC(=O)CNC(=O)[C@@H](N)Cc1ccc(O)cc1)C(C)C)C(C)C)C(=O)O [L1, YGRKKRRQRRR-PP-VRESQSHPGDFVL]
[2]; [15]
  Cytotoxicity (%) SW480: 20.24 ± 8.943^ns %
[2]; [16]
  Cytotoxicity (%) SW480: 31.38 ± 3.779 %
[2]; [17]
  Cytotoxicity (%) SW480: 40.19 ± 8.373 %
[3]; [15]
  Cytotoxicity (%) MDA-MB-231: 5.933 ± 3.955^ns %
[3]; [16]
  Cytotoxicity (%) MDA-MB-231: 20.55 ± 1.157 %
[3]; [17]
  Cytotoxicity (%) MDA-MB-231: 34.8 ± 7.424 %
[1]
  Cytotoxicity (%): 33.23 ± 2.32 %

B1: TAT-SHP2-N-SH2 fusion protein: TAT penetrating peptide connected to N-terminal SH2 domain of SHP2 through glycine and serine (TAT-Gly-Ser-N-SH2); SEQ ID NO.:4 (protein)
chain: YGRKKRRQRRRGSRWFHPNITGVEAENLLLTRGVDGSFLARPSKSNPGDFTLSVRRNGAVTHIKIQNTGDYYDLYGGEKFATLAELVQYYMEHHGQLKEKNGDVIELKYPLN
modifications: the fusion protein
[4]
  apoptosis of T lymphocytes: significantly decreased
[5]
  direct toxic effect on tumor cells: no direct toxic effect
[6]
  direct toxic effect on tumor cells: no direct toxic effect
[7]; 5 μg/mouse intraperitoneal
  Tumor inhibition rate %: 60.5%
[7]; 5 μg/mouse intraperitoneal, dissection after 23 d
  Tumor weight (g): 0.34 ± 0.20** g
[7]; N5 and C5 5 μg/mouse, αPD-1 antibody 50 μg/mouse
  effect on growth of PD-L1-KO-EMT6 tumors: significantly inhibit the growth of PD-L1-KO-EMT6 tumors
[8]
  proliferation rate of T lymphocytes: 61.05%
[9]; 2 μg/mouse intraperitoneal
  Tumor inhibition rate %: 54.9%
  Tumor weight (g): 0.56 ± 0.11* g
[9]; 5 μg/mouse intraperitoneal
  Tumor inhibition rate %: 70.3%
[9]; 5 μg/mouse intraperitoneal, dissection after 21 d
  Tumor weight (g): 0.37 ± 0.10** g
[9]; 10 μg/mouse intraperitoneal
  Tumor inhibition rate %: 63%
  Tumor weight (g): 0.46 ± 0.12** g
[9]; 15 μg/mouse intraperitoneal
  Tumor inhibition rate %: 47.9%
  Tumor weight (g): 0.64 ± 0.15* g
[2]; [15]
  Cytotoxicity (%) SW480: 23.51 ± 1.432 %
[2]; [16]
  Cytotoxicity (%) SW480: 44.42 ± 5.78 %
[2]; [17]
  Cytotoxicity (%) SW480: 50.64 ± 2.068 %
[3]; [15]
  Cytotoxicity (%) MDA-MB-231: 15.11 ± 6.483^ns %
[3]; [16]
  Cytotoxicity (%) MDA-MB-231: 12.55 ± 3.037 %
[3]; [17]
  Cytotoxicity (%) MDA-MB-231: 21.78 ± 3.021 %
[10]
  Tumor inhibition rate %: 8.3%
[10]; day 21
  Tumor weight (g): 0.82 ± 0.13^ns g
[11]; groups C5/N5
  Tumor inhibition rate %: 9.9%
[11]; groups C5/N5, sacrificed after 30 days
  Tumor weight (g): 0.25 ± 0.06^ns g
[12]
  level of IL-2 secreted by T lymphocytes: significantly increased
[13]
  phosphorylation levels of ERK, AKT and JNK: the expression levels of p-ERK and p-AKT in the TAT-SHP2-N-SH2 fusion protein stimulation group have the most obvious changes
[14]; [18]
  Tumor inhibition rate %: 55.3%
  Tumor weight: 0.36 ± 0.11 g
[14]; [19]
  Tumor inhibition rate %: 53.5%
  Tumor weight: 0.38 ± 0.11 g
[14]; [20]
  Tumor inhibition rate %: 80.9%
  Tumor weight: 0.16 ± 0.03 g
[14]; [21]
  Tumor inhibition rate %: 57.8%
  Tumor weight: 0.34 ± 0.08 g
[14]; [22]
  Tumor inhibition rate %: 77.1%
  Tumor weight: 0.26 ± 0.07 g
